In experiment [1] the target is purified CLDN18.2 protein (CLDN18.2 ligand) (human) (UniProt P56856). Description: BLI (ForteBio Octet RED 96), antibody on anti-human IgG capture sensor, CLDN18.2 ligand in solution, 1:1 fit.
Experiment [2] deals with Claudin-3. Nature of the experiment: FACS, transfected HEK 293 cells. For orientation: A flow cytometer gives signals particle by particle.
In experiment [3] the target is T1, Claudin-2.
T1 sequence (P57739 whole entry, species assumed, looked up): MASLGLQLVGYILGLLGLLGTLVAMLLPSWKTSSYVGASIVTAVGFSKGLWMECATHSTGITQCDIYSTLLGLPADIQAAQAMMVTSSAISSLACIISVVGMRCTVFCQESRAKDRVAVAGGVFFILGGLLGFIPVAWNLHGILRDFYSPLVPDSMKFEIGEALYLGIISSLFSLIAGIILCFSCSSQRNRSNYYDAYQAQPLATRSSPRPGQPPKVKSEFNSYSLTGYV
Nature of the experiment: FACS, transfected HEK 293 cells.

Experiment [4] addresses T2, Claudin-10.
T2 sequence (P78369 1-228, species assumed, looked up): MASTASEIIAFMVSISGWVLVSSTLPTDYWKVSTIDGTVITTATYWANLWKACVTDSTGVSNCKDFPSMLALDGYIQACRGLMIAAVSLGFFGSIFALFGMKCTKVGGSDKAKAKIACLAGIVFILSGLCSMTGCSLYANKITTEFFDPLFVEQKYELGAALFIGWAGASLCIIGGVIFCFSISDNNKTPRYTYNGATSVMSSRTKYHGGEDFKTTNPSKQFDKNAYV
Nature of the experiment: FACS, transfected HEK 293 cells.

Experiment [5] concerns the target T3, Claudin-23.
T3 sequence (Q96B33 1-292, species assumed, looked up): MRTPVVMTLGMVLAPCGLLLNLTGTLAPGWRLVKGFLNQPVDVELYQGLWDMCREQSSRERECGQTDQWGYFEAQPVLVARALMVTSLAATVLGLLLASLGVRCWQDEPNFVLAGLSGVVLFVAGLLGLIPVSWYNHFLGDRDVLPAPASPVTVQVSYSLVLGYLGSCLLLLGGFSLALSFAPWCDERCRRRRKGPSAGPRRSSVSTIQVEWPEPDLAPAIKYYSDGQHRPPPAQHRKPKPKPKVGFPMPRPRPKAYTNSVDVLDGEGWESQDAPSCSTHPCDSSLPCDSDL
Nature of the experiment: FACS, transfected HEK 293 cells.

Experiment [6] addresses T4, Claudin-19.
T4 sequence (Q8N6F1 whole entry, species assumed, looked up): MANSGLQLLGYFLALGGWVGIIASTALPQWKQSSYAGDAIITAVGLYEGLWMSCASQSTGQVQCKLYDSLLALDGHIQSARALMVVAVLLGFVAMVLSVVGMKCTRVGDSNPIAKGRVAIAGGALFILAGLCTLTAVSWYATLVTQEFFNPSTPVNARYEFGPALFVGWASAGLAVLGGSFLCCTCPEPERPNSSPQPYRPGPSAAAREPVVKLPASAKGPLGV
Description: FACS, transfected HEK 293 cells.

Experiment [7] deals with Claudin-8. Description: FACS, transfected HEK 293 cells.
In experiment [8] the target is Claudin-14. Nature of the experiment: FACS, transfected HEK 293 cells.
Experiment [9] concerns the target Claudin-34. Description: FACS, transfected HEK 293 cells.
The target of experiment [10] is Claudin-22. Nature of the experiment: FACS, transfected HEK 293 cells.
Experiment [11] has as its target T5, CLDN 7 expressed on HEK 293 cells (UniProt O95471).
T5 sequence (looked up): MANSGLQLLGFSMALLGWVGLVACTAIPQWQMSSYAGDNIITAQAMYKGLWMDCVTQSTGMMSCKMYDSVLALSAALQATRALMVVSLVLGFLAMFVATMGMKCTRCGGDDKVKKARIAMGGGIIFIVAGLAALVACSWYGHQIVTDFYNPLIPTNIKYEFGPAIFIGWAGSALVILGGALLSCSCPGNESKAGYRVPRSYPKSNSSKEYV
Nature of the experiment: FACS, transfected HEK 293 cells.

The target in experiment [12] is T6, Claudin-5.
T6 sequence (O00501 whole entry, species assumed, looked up): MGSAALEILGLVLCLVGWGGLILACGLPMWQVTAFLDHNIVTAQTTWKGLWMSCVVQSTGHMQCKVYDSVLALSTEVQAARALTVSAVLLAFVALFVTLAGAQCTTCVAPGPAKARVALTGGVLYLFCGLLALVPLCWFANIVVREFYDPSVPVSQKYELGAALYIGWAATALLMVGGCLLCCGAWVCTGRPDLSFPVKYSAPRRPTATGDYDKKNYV
Description: FACS, transfected HEK 293 cells.

The target of experiment [13] is Claudin-12. Description: FACS, transfected HEK 293 cells.
Experiment [14] addresses T7, Claudin-11.
T7 sequence (O75508 whole entry, species assumed, looked up): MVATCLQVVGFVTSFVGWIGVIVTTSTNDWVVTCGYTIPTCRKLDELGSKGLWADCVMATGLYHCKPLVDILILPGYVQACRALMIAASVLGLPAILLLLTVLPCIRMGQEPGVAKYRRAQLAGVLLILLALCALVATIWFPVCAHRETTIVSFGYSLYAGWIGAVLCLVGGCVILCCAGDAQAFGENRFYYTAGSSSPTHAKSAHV
Description: FACS, transfected HEK 293 cells.

For experiment [15], the target named is Claudin-9. Nature of the experiment: FACS, transfected HEK 293 cells.
Experiment [16] deals with Claudin-4. Nature of the experiment: FACS, transfected HEK 293 cells.
The target in experiment [17] is T8, Claudin-16.
T8 sequence (Q9Y5I7 1-235, species assumed, looked up): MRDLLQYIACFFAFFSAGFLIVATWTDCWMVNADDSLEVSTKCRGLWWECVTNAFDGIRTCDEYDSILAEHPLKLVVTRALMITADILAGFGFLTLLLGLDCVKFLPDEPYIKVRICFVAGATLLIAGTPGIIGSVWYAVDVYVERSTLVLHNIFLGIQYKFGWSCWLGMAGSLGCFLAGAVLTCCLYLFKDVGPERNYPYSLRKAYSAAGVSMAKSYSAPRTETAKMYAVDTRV
Description: FACS, transfected HEK 293 cells.

Experiment [18] deals with T9, Claudin-17.
T9 sequence (P56750 whole entry, species assumed, looked up): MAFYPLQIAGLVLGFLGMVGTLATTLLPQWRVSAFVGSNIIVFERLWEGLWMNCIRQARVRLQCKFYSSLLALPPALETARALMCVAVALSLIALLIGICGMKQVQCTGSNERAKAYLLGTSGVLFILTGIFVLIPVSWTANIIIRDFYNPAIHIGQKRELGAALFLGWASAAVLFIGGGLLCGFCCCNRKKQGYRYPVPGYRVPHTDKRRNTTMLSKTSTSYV
Description: FACS, transfected HEK 293 cells.

Experiment [19] addresses Claudin-1. Nature of the experiment: FACS, transfected HEK 293 cells.
For experiment [20], the target named is human Claudin 18.2 (CLDN18.2) expressed on cells (human) (UniProt P56856). Nature of the experiment: FACS, transfected HEK 293 cells, first 18.2 column.
Experiment [21] shares this target. Description: FACS, purified antibody on HEK 293 cells expressing CLDN18.2.
Experiment [22] shares this target. Nature of the experiment: FACS, transfected HEK 293 cells, second 18.2 column.
For experiment [23], the target named is purified CLDN18.2 protein (CLDN18.2 ligand) (human) (UniProt P56856). Description: Octet (ForteBio), antibody on anti-human IgG capture sensor, CLDN18.2 ligand in solution, 1:1 fit; kdis(1/s).
For experiment [24] the target is unchanged. Description: Octet (ForteBio), antibody on anti-human IgG capture sensor, CLDN18.2 ligand in solution, 1:1 fit.
Experiment [25] has as its target human Claudin 18.2 (CLDN18.2) expressed on cells (human) (UniProt P56856). Nature of the experiment: cell-based or functional assay.
Experiment [26] shares this target. Nature of the experiment: FACS, transfected HEK293 cells, 10 ug/ml; HEK293 alone 14.2.
The target of experiment [27] is mouse-18.2 (mouse) (UniProt P56857). The description is as above.
The target in experiment [28] is CLDN18.1 expressed on HEK 293 cells (UniProt P56856). Described as above.
For experiment [29], the target named is mouse-18.1 (mouse) (UniProt P56857). The experiment is described as above.
The target of experiment [30] is human Claudin 18.2 (CLDN18.2) expressed on cells (human) (UniProt P56856). Description: FACS, purified chimeric antibody on HEK 293 cells expressing CLDN18.2.
In experiment [31] the target is CLDN18.1 expressed on HEK 293 cells (UniProt P56856). Description: FACS, hybridoma supernatant on HEK 293 cells expressing CLDN 18.1.

Where “and” joins values, the source holds several entries; their conditions need not be identical. Equal entries are not always repeated.

The Kd is the equilibrium constant for the complex coming apart. A higher Kd goes with weaker binding. The term EC50 denotes the concentration needed to bring the measured effect to its halfway point. A low value points to higher potency in that assay. Broadly, the koff is the first-order rate constant of dissociation. What is called kon is a measure of how fast the partners come together. High values mean fast association, low ones slow association.

Chain of mouse-18.1 (mouse) (P56857 whole entry): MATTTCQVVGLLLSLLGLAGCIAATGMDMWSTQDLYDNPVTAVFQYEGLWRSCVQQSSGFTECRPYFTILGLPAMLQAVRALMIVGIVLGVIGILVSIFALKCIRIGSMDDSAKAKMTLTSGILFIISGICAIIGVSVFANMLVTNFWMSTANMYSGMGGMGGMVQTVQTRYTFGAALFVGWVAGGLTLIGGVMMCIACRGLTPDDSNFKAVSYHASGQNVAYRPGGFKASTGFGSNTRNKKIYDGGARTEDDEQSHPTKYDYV
Chain of mouse-18.2 (mouse) (P56857 other isoform, or with tags, fused parts or gaps): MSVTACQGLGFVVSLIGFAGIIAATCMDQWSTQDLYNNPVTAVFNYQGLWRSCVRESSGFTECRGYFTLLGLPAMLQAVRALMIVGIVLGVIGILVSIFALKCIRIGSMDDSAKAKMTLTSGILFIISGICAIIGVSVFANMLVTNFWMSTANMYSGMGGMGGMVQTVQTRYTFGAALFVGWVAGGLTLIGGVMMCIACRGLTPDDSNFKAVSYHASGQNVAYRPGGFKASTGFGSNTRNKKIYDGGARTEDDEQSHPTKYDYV

B1: Internal Reference (reference antibody with the heavy and light chain sequences of Zolbetuximab) (antibody, INN chains, looked up, V domains shown)
VH: QVQLQQPGAELVRPGASVKLSCKASGYTFTSYWINWVKQRPGQGLEWIGNIYPSDSYTNYNQKFKDKATLTVDKSSSTAYMQLSSPTSEDSAVYYCTRSWRGNSFDYWGQGTTLTVSS
VL: DIVMTQSPSSLTVTAGEKVTMSCKSSQSLLNSGNQKNYLTWYQQKPGQPPKLLIYWASTRESGVPDRFTGSGSGTDFTLTISSVQAEDLAVYYCQNDYSYPFTFGSGTKLEIKR
Regarding B1, the Kd was 89 nM and 71 nM in [1]; 86.9 nM in experiment [24]. Also, the MFI turned out to be 20.8 in [2]; 19.7 in experiment [3]; 20.8 in experiment [4]; 19.8 in [5]; 18.1 in [6]; 20.4 in [7]. Moreover, the MFI in experiment [8] turned out to be 21.2; in experiment [9], 21.1; in experiment [10], 19.9; in experiment [11], 21.4; in experiment [12] it was 18.4; in experiment [13], 21.4. Further, the MFI in experiment [14] amounted to 19.3; in [15], 20.4; in experiment [16] it was 18.7; in experiment [17] it was 19.5; in experiment [18] it was 19.6; in experiment [19] it was 20.9. The MFI came out at 4040 in [20] and 3880 in experiment [22]. For the same molecule, the EC50 in [21] amounted to 1.17 nM. The molecule further had an FACS Signal MFI (×1000) in experiment [21] of 25000 MFI. In experiment [23], the koff came out at 0.000139 s⁻¹. The association rate constant (kon) in experiment [24] is 1600 M⁻¹ s⁻¹. This molecule also returned an ADCC NUGC4 Cells in experiment [25] of 610 ng/mL. Moreover, the ADCC with 293 cells expressing Claudin 18.2 in experiment [25] is 0.014 nM and 0.006 nM.

B2: Clone # 46 (purified chimeric rabbit/human antibody) (antibody, V domains shown)
VH: QQQLVESGGGLVKPGGTLTLTCTVSGFYFNRGYWICWVRQAPGKGLEWIGCIDTGSGVPYYANWAKGRFTISKTSSTAVTLQMTSLTAADTATYFCARNSDSIYFNLWGPGTLVTVSS
VL: DIVMTQTPASVSEPVGGTVTIKCQASQSIGGYLSWYQQKPGQPPKLLIYKASTLASGVPSRFKGSGSGTDFTLTISDLECADAATYYCQNYAGVSIYGAVFGGGTKVVVVR
For B2, the Kd in experiment [1] is 12 nM; in experiment [24] it was 12.5 nM. The MFI in [26] turned out to be 553; in experiment [27], 3490; in experiment [28], 19.4; in experiment [29], 18.9. In experiment [30], the EC50 was found to be 0.619 nM. The same molecule gave an FACS Signal MFI (×1000) in experiment [30] of 55000 MFI. Moreover, the off-rate (koff) in experiment [23] was determined as 2.9e-05 s⁻¹. Also, the kon in [24] stood at 2320 M⁻¹ s⁻¹. Further, the ADCC NUGC4 Cells in [25] came to 70 ng/mL. The ADCC with 293 cells expressing Claudin 18.2 in [25] is 0.015 nM.

B3: 11E12 (mouse hybridoma subclone antibody) (antibody, V domains shown)
VH: QVQLQQSGAELARPGASVKLSCKASGYTFTSYVINWVKQKTGQGLEWIGEIHPRGGNTYYSEKFRGRATLTADKSSSTAYMEFRSLTSEDSAVYFCAILRRGNAMDYWDQGTAVTVSS
VL: DIVMTQSPSSLPVTAGEMVTMSCKSSQSLLNSGNQRNYLTWYQQKPGQPPKLLIYWASTRESGVPDRFTGSGSGTDFTLTISSVQAEDLAVYYCQNSYNYPYTFGGGTKLERK
Molecule B3 registered an MFI in experiment [31] of 30.
